Tests used:
[1] = biological target: T1, human CD16B-NA1 ECD his tag protein (human, UniProt O75015 17-200); assay: ELISA, hCD16B-NA1-his coated at 2 ug/mL, OD450
T1 construct: extracellular domain; Bought protein; also called hCD16B-NA1-his; hCD16B-NA1 protein
Procedure: (§1) In order to determine the binding ability of the chimeric Abs to human CD16A protein, ELISA-based binding assay was performed as followed. […] The mixture was incubated for 1 hour at room temperature (RT). The primary antibody was recognized by a detective antibody against human IgG Fc which was conjugated with horseradish peroxidase (HRP) (Jackson Immuno, Cat. No. 109-035-008). Tetramethylbenzidine (TMB), a substrate of HRP, was added to the wells to visualize the binding signal. After sufficient color development, stop solution was added to the wells. The absorbance of the signal was detected at 450 nm with Envision multilabel plate readers (PerkinElemer). The graph and statistics analysis were generated with four-parameter nonlinear regression curve fit in Graphpad Prism 9 software.
(§2) In order to determine the binding ability of the chimeric Abs to human CD16B protein, ELISA binding assay was performed as previously described. Three spliced isoforms of CD16B including human CD16B-NA1 ECD his tag protein (hCD16B-NA1-his, Acro Bio, Cat: No. CDB-H5227), human CD16B-NA2 ECD his tag protein (hCD16B-NA2-his, Acro Bio, Cat: No. CDB-H82Ea) and human CD16B-SH-his protein, were used as the coating antigens at 2 μg/mL.

[2] = biological target: T2, human CD16B-NA1 expressed on CHO-K1 cells (human, UniProt O75015 17-200); assay: flow cytometry, CHO-K1-hCD16B-NA1 cells, geometric mean
T2 construct: whole, on cells; also called hCD16B-NA1; CHO-K1-hCD16B-NA1
T2 sequence (O75015 other isoform, or with tags, fused parts or gaps): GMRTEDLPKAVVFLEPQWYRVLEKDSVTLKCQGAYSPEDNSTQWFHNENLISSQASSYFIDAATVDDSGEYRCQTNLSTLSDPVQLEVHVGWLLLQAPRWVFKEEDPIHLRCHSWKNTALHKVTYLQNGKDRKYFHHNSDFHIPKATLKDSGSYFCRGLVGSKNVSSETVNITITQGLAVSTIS
Procedure: (§3) In order to evaluate the binding activity of the chimeric mAbs to human CD16A expressed on cells, cell-based binding assay was employed as followed. […] The antibody dilutions were incubated with 1×10⁵ indicated cells in the 96-well microplate for one hour at 4° C. The antibodies binding to the antigen on the cell surface were detected with PE fluorophore-conjugated anti-human IgG Fc secondary antibodies (ThermoFisher scientific, Cat. No. 12-4998-82) at a dilution rate of 1:1000. Cells were analyzed by flow cytometer LSRFortessa Cell Analyzer (BD Biosciences). Data were analyzed with Flowjo 10.0 software. The graph and statistics analysis were generated with four-parameter nonlinear regression curve fit in Graphpad Prism 9 software.
(§4) To exclude the non-specific binding of the CD16A chimeric antibody to human CD16B and CD32B expressed on cells, cell-based binding assay was performed as described above. Firstly, CHO-K1 cells were stably transferred with one human CD16B spliced isoform hCD16B-NA1 and human CD32B. Then, the cells were incubated with the indicated concentrations of CD16A chimeric antibodies.

[3] = biological target: T3, human CD32B expressed on CHO-K1 cells (human, UniProt P31994 43-310); assay: flow cytometry, CHO-K1-hCD32B cells, geometric mean
T3 construct: whole, on cells; also called hCD32B
T3 sequence (looked up): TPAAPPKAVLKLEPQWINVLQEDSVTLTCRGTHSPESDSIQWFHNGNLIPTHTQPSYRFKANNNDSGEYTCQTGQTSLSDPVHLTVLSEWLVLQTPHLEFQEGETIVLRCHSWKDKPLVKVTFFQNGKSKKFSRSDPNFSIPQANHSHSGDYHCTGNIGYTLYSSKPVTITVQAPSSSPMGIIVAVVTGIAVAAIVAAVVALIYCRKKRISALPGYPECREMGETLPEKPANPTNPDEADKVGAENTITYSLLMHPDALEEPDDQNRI
Procedure: as §3, §4

[4] = biological target: T4, human CD16B-NA2 ECD his tag protein (human, UniProt O75015 17-200); assay: ELISA, hCD16B-NA2-his coated at 2 ug/mL, OD450
T4 construct: extracellular domain; Bought protein; also called hCD16B-NA2-his; hCD16B-NA2 protein
T4 sequence (O75015 17-200 N65S limits assumed): as the sequence (O75015 other isoform, or with tags, fused parts or gaps) above, with R20S, N49S, D66N, V90I counted along it
Procedure: as §1, §2

[5] = biological target: T5, human CD16A-158F expressed on CHO-K1 cells (human, UniProt P08637 17-254); assay: flow cytometry on antigen-expressing CHO-K1 cells
T5 construct: whole, on cells
T5 sequence (P08637 17-254): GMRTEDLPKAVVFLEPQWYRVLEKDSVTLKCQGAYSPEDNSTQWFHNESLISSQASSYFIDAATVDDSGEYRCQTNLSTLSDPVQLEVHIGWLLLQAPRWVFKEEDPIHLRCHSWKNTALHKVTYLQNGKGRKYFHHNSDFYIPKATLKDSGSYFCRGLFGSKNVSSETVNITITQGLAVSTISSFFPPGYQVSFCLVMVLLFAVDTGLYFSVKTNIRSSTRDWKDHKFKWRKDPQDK
Procedure: as §3
(§5) CHO-K1 cells stably expressing cynomolgus CD16 were used in the following test.

[6] = biological target: T6, human CD16A-158V expressed on CHO-K1 cells (human, UniProt P08637 17-254); assay: flow cytometry on antigen-expressing CHO-K1 cells
T6 construct: whole, on cells; also called hCD16A-158V; CHO-K1-hCD16A-158V
T6 sequence (P08637 17-254 F176V): as the sequence (P08637 17-254) above, with F160V counted along it
Procedure: as §3, §5

hCD16A-158V-his protein [7] = biological target: T7, hCD16A-158V-his protein (human, UniProt P08637 17-208); assay: ELISA, plate-coated his-tagged antigen 2 ug/mL
T7 construct: extracellular domain; Bought protein; also called human CD16A-158V-his; Human CD16A-158V (protein)
T7 sequence (P08637 17-208 F176V): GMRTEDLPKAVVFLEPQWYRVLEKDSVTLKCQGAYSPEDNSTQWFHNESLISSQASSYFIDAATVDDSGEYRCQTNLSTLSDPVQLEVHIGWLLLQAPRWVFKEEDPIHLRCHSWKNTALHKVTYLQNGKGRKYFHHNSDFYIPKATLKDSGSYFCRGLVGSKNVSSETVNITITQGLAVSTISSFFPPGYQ
Procedure: as §1
(§6) In order to determine the cross reactivity of the chimeric Abs to cynomolgus CD16, ELISA binding assay was performed as described above. Recombinant cyno CD16 ECD his tag protein (cynoCD16-his, Acro Bio, Cat. No. FC6-C52H9) was used as the coating antigen at 2 μg/mL.

hCD16A-158F-his protein [8] = biological target: T8, hCD16A-158F-his protein (human, UniProt P08637 17-208); assay: ELISA, plate-coated his-tagged antigen 2 ug/mL
T8 construct: Bought protein
T8 sequence (P08637 17-208 limits assumed): as the sequence (P08637 17-208 F176V) above, with V160F counted along it
Procedure: as §1, §6

hCD16A-158V-his protein [9] = biological target: T7, hCD16A-158V-his protein; assay: SPR (Biacore 8K), antibody captured on Protein A chip, antigen at 50 nM
Procedure: (§7) The binding affinity of the chimeric antibodies to human CD16A was determined with Biacore™. Briefly, the antibodies were captured with a Protein A chip. […] The antigen was allowed to dissociate for 500 s. The experiment was carried out on a Biacore™ 8K. Data analysis was carried out using Biacore™ 8K evaluation software.

hCD16A-158F-his protein [10] = biological target: T8, hCD16A-158F-his protein; assay: as above
Procedure: as §7

T1 sequence (O75015 other isoform, or with tags, fused parts or gaps limits assumed): as the sequence (O75015 other isoform, or with tags, fused parts or gaps) above

B1: 42F5H2-hIgG1 LALAPG (antibody)
heavy: QVQLQQPGAELVRPGASVKLSCKASGYTFTSYWMNWVKQRPGQGLEWIGMIDPSDSETHHNQMFKDKATLTVDKSSSTAYMQLSSLTSEDSAVYYCAKWLPPYAMDYWGQGTSVTVSSASTKGPSVFPLAPSSKSTSGGTAALGCLVKDYFPEPVTVSWNSGALTSGVHTFPAVLQSSGLYSLSSVVTVPSSSLGTQTYICNVNHKPSNTKVDKKVEPKSCDKTHTCPPCPAPEAAGGPSVFLFPPKPKDTLMISRTPEVTCVVVDVSHEDPEVKFNWYVDGVEVHNAKTKPREEQYNSTYRVVSVLTVLHQDWLNGKEYKCKVSNKALGAPIEKTISKAKGQPREPQVYTLPPSREEMTKNQVSLTCLVKGFYPSDIAVEWESNGQPENNYKTTPPVLDSDGSFFLYSKLTVDKSRWQQGNVFSCSVMHEALHNHYTQKSLSLSPGK
light: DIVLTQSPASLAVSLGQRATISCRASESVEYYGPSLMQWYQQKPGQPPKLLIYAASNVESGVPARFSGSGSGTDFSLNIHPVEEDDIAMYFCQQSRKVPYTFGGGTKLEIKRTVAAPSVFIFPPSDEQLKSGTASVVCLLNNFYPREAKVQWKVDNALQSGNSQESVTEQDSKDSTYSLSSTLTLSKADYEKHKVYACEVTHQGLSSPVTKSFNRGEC
notes: also called 42F5H2 chimeric Ab
binding result [1]: no binding (tested: 20 nM)
binding result [2]: no binding (tested: 100 nM)
binding result [3]: no binding (tested: 100 nM)
binding result [4]: no binding (tested: 20 nM)
EC50 [5]: 0.5 nM
EC50 [6]: 0.47 nM
EC50 (hCD16A-158V-his protein [7]): 0.11 nM
EC50 (hCD16A-158F-his protein [8]): 0.42 nM
Kd (hCD16A-158V-his protein [9]): 0.303 nM
koff (hCD16A-158V-his protein [9]): 0.00139 s⁻¹
kon (hCD16A-158V-his protein [9]): 4.59e+06 M⁻¹ s⁻¹
Kd (hCD16A-158F-his protein [10]): 0.226 nM
koff (hCD16A-158F-his protein [10]): 0.000873 s⁻¹
kon (hCD16A-158F-his protein [10]): 3.86e+06 M⁻¹ s⁻¹

B2: 37B3G11-hIgG1 LALAPG (antibody)
heavy: QVQLQQPGAELVRPGASVKLSCKASGYTFTTYWMNWVKQRPGQGLEWIGMIDPSDSETHYNQMFKDKATLTVDKSSSTAYMQLSSLTSEDSAVYYCAVPSLYNSNYRFAYWGQGTLVTVSAASTKGPSVFPLAPSSKSTSGGTAALGCLVKDYFPEPVTVSWNSGALTSGVHTFPAVLQSSGLYSLSSVVTVPSSSLGTQTYICNVNHKPSNTKVDKKVEPKSCDKTHTCPPCPAPEAAGGPSVFLFPPKPKDTLMISRTPEVTCVVVDVSHEDPEVKFNWYVDGVEVHNAKTKPREEQYNSTYRVVSVLTVLHQDWLNGKEYKCKVSNKALGAPIEKTISKAKGQPREPQVYTLPPSREEMTKNQVSLTCLVKGFYPSDIAVEWESNGQPENNYKTTPPVLDSDGSFFLYSKLTVDKSRWQQGNVFSCSVMHEALHNHYTQKSLSLSPGK
light: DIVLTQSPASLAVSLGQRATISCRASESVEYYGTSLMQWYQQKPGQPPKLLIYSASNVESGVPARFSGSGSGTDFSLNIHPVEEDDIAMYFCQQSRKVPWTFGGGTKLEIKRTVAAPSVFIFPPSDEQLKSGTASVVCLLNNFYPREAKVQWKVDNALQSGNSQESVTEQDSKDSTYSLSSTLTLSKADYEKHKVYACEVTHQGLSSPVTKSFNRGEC
notes: also called 37B3G11 chimeric Ab
binding result [1]: no binding (tested: 20 nM)
binding result [2]: no binding (tested: 100 nM)
binding result [3]: no binding (tested: 100 nM)
binding result [4]: no binding (tested: 20 nM)
EC50 [5]: 0.74 nM
EC50 [6]: 0.68 nM
EC50 (hCD16A-158V-his protein [7]): 0.17 nM
EC50 (hCD16A-158F-his protein [8]): 1.2 nM
Kd (hCD16A-158V-his protein [9]): 1.26 nM
koff (hCD16A-158V-his protein [9]): 0.00377 s⁻¹
kon (hCD16A-158V-his protein [9]): 2.98e+06 M⁻¹ s⁻¹
Kd (hCD16A-158F-his protein [10]): 1.62 nM
koff (hCD16A-158F-his protein [10]): 0.00531 s⁻¹
kon (hCD16A-158F-his protein [10]): 3.27e+06 M⁻¹ s⁻¹

B3: 23H7E4-hIgG1 LALAPG (antibody)
heavy: QVQLQQPGAELVRPGASVKLSCKASGYTFTSYWLNWVKQRPGQGLEWIGMIDPSDSETHYNQVFKDKATLTVDKSSTTAYMQLSSLTSEDSAVYYCARWMVTKKTFDYWGQGTTLTVSSASTKGPSVFPLAPSSKSTSGGTAALGCLVKDYFPEPVTVSWNSGALTSGVHTFPAVLQSSGLYSLSSVVTVPSSSLGTQTYICNVNHKPSNTKVDKKVEPKSCDKTHTCPPCPAPEAAGGPSVFLFPPKPKDTLMISRTPEVTCVVVDVSHEDPEVKFNWYVDGVEVHNAKTKPREEQYNSTYRVVSVLTVLHQDWLNGKEYKCKVSNKALGAPIEKTISKAKGQPREPQVYTLPPSREEMTKNQVSLTCLVKGFYPSDIAVEWESNGQPENNYKTTPPVLDSDGSFFLYSKLTVDKSRWQQGNVFSCSVMHEALHNHYTQKSLSLSPGK
light: DIVLTQSPASLAVSLGQRATISCRASESVEYYGPSLMQWYQQKPGQPPKLLIYAASNVESGVPARFSGSGSGTDFSLNIHPVEEDDIAMYFCQQSRKVPYTFGGGAKLEIKRTVAAPSVFIFPPSDEQLKSGTASVVCLLNNFYPREAKVQWKVDNALQSGNSQESVTEQDSKDSTYSLSSTLTLSKADYEKHKVYACEVTHQGLSSPVTKSFNRGEC
notes: also called 23H7E4 chimeric Ab
binding result [1]: no binding (tested: 20 nM)
binding result [2]: no binding (tested: 100 nM)
binding result [3]: no binding (tested: 100 nM)
binding result [4]: no binding (tested: 20 nM)
EC50 [5]: 0.77 nM
EC50 [6]: 0.8 nM
EC50 (hCD16A-158V-his protein [7]): 0.13 nM
EC50 (hCD16A-158F-his protein [8]): 0.44 nM
Kd (hCD16A-158V-his protein [9]): 3.81 nM
koff (hCD16A-158V-his protein [9]): 0.0107 s⁻¹
kon (hCD16A-158V-his protein [9]): 2.81e+06 M⁻¹ s⁻¹
Kd (hCD16A-158F-his protein [10]): 2.45 nM
koff (hCD16A-158F-his protein [10]): 0.00772 s⁻¹
kon (hCD16A-158F-his protein [10]): 3.16e+06 M⁻¹ s⁻¹

B4: 91A11D11-hIgG1 LALAPG (antibody)
heavy: QVQLQQPGAELVRPGTSVKLSCKASGYTFTSYWMNWVKQRPGQGLEWIGMIDPSDSETHYNQMFKDKATLTVDESSSTAYMQLSSLTSEDSAVYFCARWTLVVAHFFDYWGQGTTLTVSSASTKGPSVFPLAPSSKSTSGGTAALGCLVKDYFPEPVTVSWNSGALTSGVHTFPAVLQSSGLYSLSSVVTVPSSSLGTQTYICNVNHKPSNTKVDKKVEPKSCDKTHTCPPCPAPEAAGGPSVFLFPPKPKDTLMISRTPEVTCVVVDVSHEDPEVKFNWYVDGVEVHNAKTKPREEQYNSTYRVVSVLTVLHQDWLNGKEYKCKVSNKALGAPIEKTISKAKGQPREPQVYTLPPSREEMTKNQVSLTCLVKGFYPSDIAVEWESNGQPENNYKTTPPVLDSDGSFFLYSKLTVDKSRWQQGNVFSCSVMHEALHNHYTQKSLSLSPGK
light: DIVLTQSPASLAVSLGQRATISCRASETVEYYGPSLLQWYQQKPGQPPKLLIYGASNVESGVPARFSGSGSGTDFSLNIHPVEEDDVAMYFCQQSRKVPYTFGGGTKLEIKRTVAAPSVFIFPPSDEQLKSGTASVVCLLNNFYPREAKVQWKVDNALQSGNSQESVTEQDSKDSTYSLSSTLTLSKADYEKHKVYACEVTHQGLSSPVTKSFNRGEC
notes: also called 91A11D11 chimeric Ab
binding result [1]: no binding (tested: 20 nM)
binding result [2]: no binding (tested: 100 nM)
binding result [3]: no binding (tested: 100 nM)
binding result [4]: no binding (tested: 20 nM)
EC50 [5]: 0.46 nM
EC50 [6]: 0.45 nM
EC50 (hCD16A-158V-his protein [7]): 0.12 nM
EC50 (hCD16A-158F-his protein [8]): 0.41 nM
Kd (hCD16A-158V-his protein [9]): 0.223 nM
koff (hCD16A-158V-his protein [9]): 0.00142 s⁻¹
kon (hCD16A-158V-his protein [9]): 6.93e+06 M⁻¹ s⁻¹
Kd (hCD16A-158F-his protein [10]): 0.138 nM
koff (hCD16A-158F-his protein [10]): 0.00102 s⁻¹
kon (hCD16A-158F-his protein [10]): 7.39e+06 M⁻¹ s⁻¹

From patent US20260242485A1 (LEPU BIOPHARMA, published 2026)
